Laboratory results: patent US20260234276A1

Biological target: human CCR8 (human) (UniProt P51685)
Assay: flow cytometry, hCCR8 transfected CHOK1 cells

B1: 3-27 (antibody, V domains shown)
VH: EVKLVESGGGLVKSGGSLKLSCAASGFTFSSYAMSWVRQTPEKRLEWVASINSGGSIYYPDSVKGRFTISRDNARNILYLQMSSLRSEDTAMYYCARGFGAYWGQGTLVTVSA
VL: DIQMTQSPSSLSASLGERVTLTCRASQDIGSSLHWLQQEPDGTIKRLIYATSSLDSGVPKRFSGSRSGSDYSLTISSLESEDFVDYYCLQYATSPTFGGGTKLEIK
% positive cells: 42.5% | MFI fold change to isotype ctrl: 2.76 fold
